# Data: the RNAGym collection of RNA variant scans (doi:10.1073/pnas.2313332121)
# B1: TPR t1 (parent)
# chain: GACCAAUCUGCCCUCAGAGCUCGAGAACAUCUUCGGAUGCAGAGGAGGCAGGCUUCGGUGGCGCGAUAGCGCCAACGUCCUCAACCUCCAAUGCAUCCCACCACAUGAUGAUGCCUGAAGAGCCUUGGUUUUUUG
# Variants of: B1
# Test: polymerase ribozyme fitness, log enrichment relative to wild type (log ratio); higher = more active; in vitro selection for triplet polymerase activity
# In short: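 One round of in vitro selection, in triplicate, was applied to PCR-built, transcribed mutant libraries of each subunit of a heterodimeric triplet polymerase ribozyme. The steps were annealing with a biotinylated primer, partner subunit and triplets, incubation frozen at −7 °C, gel excision of extended constructs, streptavidin-bead capture and RT-PCR. Fitness is the logarithm, base 2, of genotype enrichment over wild-type enrichment from inverse-variance-weighted replicate averages of Illumina-sequenced inputs and outputs, keeping genotypes with ≥10 input reads and ≥1 read per output.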
row,Variant,polymerase ribozyme fitness (log ratio)
1,C70U A95G,-0.166
2,C70U C80A A95G A111G,-5.34
3,C72A C89U,-0.157
4,C72A C89A,-0.502
5,C72A G113U G120A U132A,-2.87
6,G71A U87G A103C U106C C124G,-3.7
7,G71U C99A,-7.48
8,G71C U78A,-0.14
9,G71A G128C,-3.14
10,C70U G107C G122A,-5.12
11,C70G U129C,-3.02
12,G71U A121U,2.07
13,G71A A118G,-0.577
14,C70U A105G G113A,-4.28
15,G71A U131G,-1.27
16,C72A A91C G117C,-4.28
17,C70U C115G,-2.23
18,C70U C115A,0.108
19,C70U C80A,-5.7
20,G71C C97U,-1.45
21,C72A A83U,-0.322
22,C72A,0.126
23,C70U C82A G113A,-1.84
24,G71U C79G,-2.2

row,Variant,polymerase ribozyme fitness (log ratio)
1,C70U U131A,-0.232
2,C70U U131C,0.366
3,C70U C79U G93U,-2.15
4,G71U C115G,-1.74
5,C72A C82A U87A,-0.837
6,G71U U96A,-1.24
7,C72A G107A,-4.95
8,G71U G110U,-1.24
9,C70U C102U,-2.39
10,C70U G110U,-2.59
11,G71C G120C,0.219
12,G71U C89A,-2.47
13,C70U U78G,-0.747
14,C70U U78C,-1.4
15,G71U A75U C98U,-2.02
16,G71C U81G,-5.8
17,G71U C86A,-2.02
18,G71C C89G U130C,-4.18
19,G71U U131A U133G,-1.3
20,G71U U112C,1.34
21,G71U A74G,-5.51
22,G71A G77U C88U G110A C115A U130A,-4.99
23,G71C U96G G120U,-1.37
24,C72A C85G G93A U106C,-1.13

row,Variant,polymerase ribozyme fitness (log ratio)
1,G71A C82U G110U,-2.94
2,C70U C72U A121G,1.38
3,C70U U125A,-1.31
4,C72A C88G C124A,1.33
5,G71A U132A,-0.617
6,C72A U87G A111G,0.26
7,C70U G117A,-1.99
8,C70G U130A,-3.16
9,C72A G110A,-1.01
10,G71A U106G,-2.73
11,G71A U106A,-0.841
12,G71A G117U,-2.33
13,G71A G113C,-2.6
14,C70U U78G A108G A111C,-2.26
15,C70G U130G U131G,-4.28
16,C70U C104U,-0.703
17,G71U C99G C115U,-7.86
18,C70U C97U C101U C102A,-4.84
19,G71A A111G,-0.423
20,C70U G128C,-2.54
21,G71U C73A A83U,-2.73
22,G71A C124A,1.21
23,C70U U112C,0.987
24,G71U C85A,-1.72

row,Variant,polymerase ribozyme fitness (log ratio)
1,C70G G135U,-3.49
2,C72A C73A,-0.947
3,C70U C124G,0.921
4,G71U U87C,-0.194
5,C70U C85U U126A,-3.11
6,C72A C85U C102U A121G U133A,0.201
7,C70G U92C,-4.9
8,C72A G117A,-1.19
9,G71C C124A,-0.102
10,C70U A90G,-0.454
11,G71U G93U,-0.956
12,G71U C82G G117A,-2.4
13,C70U C82G,-0.344
14,C70U C80A U87A,-5
15,G71C G113U,-2.72
16,C70U A83C A108G,-2.22
17,G71A C114G,-3.49
18,C70U A90G U106A,0.297
19,G71U U81G A111U,-6.76
20,G71C G93U C104U A119G,-1.16
21,G71A G93A G117A G120C,-2.99
22,G71A C89U A111U U112A C123A G127C,-2.37
23,C72A C114U,-1.24
24,G71U C102G U112A G127U,-5.37

row,Variant,polymerase ribozyme fitness (log ratio)
1,G71C C123U,-0.362
2,G71A G110A,-2.14
3,C72A C98A U131A,-5.63
4,C72A G120U,0.158
5,C70G U78C C82G A91C,-5.79
6,C70U A111G,0.0643
7,G71A C123U,0.153
8,C70G G93C,-4.94
9,C70G G93A,-4.33
10,C70U A75G,-0.621
11,G71U A95C C101U G127A,-3.11
12,G71C A83U G113U,-4.07
13,C70U U81C U96C,-1.2
14,C72A C86A,-0.267
15,C72A G93C C102G,-6.8
16,G71U C101U U130G,-0.458
17,C70U G71A U129G,-1.98
18,G71U C72U A118G,-0.476
19,G71A U106A U133A,-1.42
20,G71A C86A C114A,-3.9
21,C70U C88A A119G U131A,1.21
22,G71U C89A U132A,-2.07
23,G71U G122U,-0.542
24,C70U C88G U125G,-1.36

row,Variant,polymerase ribozyme fitness (log ratio)
1,G71A U92A A95U,-4.72
2,C72A A103U C124G U131C,-2.63
3,C70U G135U,-1.13
4,G71A C97U,-1.06
5,G71A G120A,-0.000691
6,G71A C98U C101A,-3.15
7,G71C C72A,-6.22
8,G71A U96A,-2.13
9,C72A U81G G110U,-6.47
10,C70U C114A,-2.33
11,C70G U126C,-3.27
12,G71U U81A C123A,-1.04
13,C70G G110A,-4.37
14,C72A U87A,0.169
15,C72A A83U C123G U126A,0.126
16,G71C A90U G122A C123U,-3.12
17,C70G U96C,-2.6
18,C70U G120C U132C,0.806
19,G71U A91G A121U,0.367
20,C70U A105C,-3.43
21,C70U U78C U129G,-1.5
22,C70U U78C U129A,-1.77
23,G71C C79G,-1.96
24,G71C U112A,0.348

row,Variant,polymerase ribozyme fitness (log ratio)
1,C70U U96A G120A,-0.134
2,C70G G117U,-4.3
3,G71C G135U,-2.55
4,C70U C80U G113C A119G,-3.1
5,C70U C82G C124A U130C,0.602
6,C72A U109A C123U,-6.2
7,C72A C124A,1.27
8,C72A C124G,2.23
9,G71U C124A,2.05
10,C70U A90G C101A C123A,-1.13
11,C72A U125G U131A,-0.709
12,G71U C97U U112A,1.1
13,C70U C82U A83C C89A G93A,-4.1
14,C70U G120U,0.0972
15,G71A U109C,-4.59
16,C72A C94U,-0.00506
17,C72A A118U,0.818
18,C72A C80U C114G,-3.31
19,G71A G110A C115U,-5.43
20,G71C A74U C89U G110C U125A U129A,-7.38
21,C70G G77A G93A A100U A105G U106A,-4.21
22,C70U C97U C123G U126A,-0.00382
23,C70U C97A G113C A119U G127C,-5.36
